According to the supplement of paper PMC10065799, “High-throughput profiling of sequence recognition by tyrosine kinases and SH2 domains using bacterial peptide display” (eLife, 2023):

Legend:
AncSZ = assay: phosphorylation enrichment, bacterial display (enrichment ratio); higher = better substrate or ligand; peptides without Tyr show the background
EPHB1 = EPHB1 (UniProt P54762); assay: as above
EPHB2 = EPHB2 (UniProt P29323); assay: as above
FGFR1 = FGFR1 (UniProt P11362); assay: as above
FGFR3 = FGFR3 (UniProt P22607); assay: as above
Chain of FGFR3 (P22607 whole entry, looked up): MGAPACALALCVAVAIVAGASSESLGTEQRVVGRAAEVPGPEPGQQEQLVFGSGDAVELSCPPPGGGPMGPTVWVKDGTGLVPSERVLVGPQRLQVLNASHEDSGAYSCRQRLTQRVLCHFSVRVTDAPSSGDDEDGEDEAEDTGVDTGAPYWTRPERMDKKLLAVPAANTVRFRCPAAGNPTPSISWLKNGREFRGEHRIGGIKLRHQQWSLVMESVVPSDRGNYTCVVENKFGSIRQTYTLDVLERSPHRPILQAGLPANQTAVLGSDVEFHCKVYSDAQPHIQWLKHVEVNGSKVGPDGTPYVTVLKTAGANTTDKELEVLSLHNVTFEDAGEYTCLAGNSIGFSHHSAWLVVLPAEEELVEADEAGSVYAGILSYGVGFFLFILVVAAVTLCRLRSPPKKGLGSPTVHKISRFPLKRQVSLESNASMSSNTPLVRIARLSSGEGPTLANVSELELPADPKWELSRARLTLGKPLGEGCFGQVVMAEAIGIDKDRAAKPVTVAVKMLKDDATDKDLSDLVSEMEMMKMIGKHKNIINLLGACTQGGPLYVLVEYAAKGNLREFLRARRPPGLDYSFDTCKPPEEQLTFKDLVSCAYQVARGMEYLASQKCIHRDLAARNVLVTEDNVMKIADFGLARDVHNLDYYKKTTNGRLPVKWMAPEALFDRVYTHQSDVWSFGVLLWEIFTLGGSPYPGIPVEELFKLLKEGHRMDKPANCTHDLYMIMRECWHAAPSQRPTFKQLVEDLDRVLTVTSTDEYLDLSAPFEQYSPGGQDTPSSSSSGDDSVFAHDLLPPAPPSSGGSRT

Fer (mouse) = assay: as above
Fes = Fes (UniProt P07332); assay: as above
Chain of Fes (P07332 whole entry, looked up): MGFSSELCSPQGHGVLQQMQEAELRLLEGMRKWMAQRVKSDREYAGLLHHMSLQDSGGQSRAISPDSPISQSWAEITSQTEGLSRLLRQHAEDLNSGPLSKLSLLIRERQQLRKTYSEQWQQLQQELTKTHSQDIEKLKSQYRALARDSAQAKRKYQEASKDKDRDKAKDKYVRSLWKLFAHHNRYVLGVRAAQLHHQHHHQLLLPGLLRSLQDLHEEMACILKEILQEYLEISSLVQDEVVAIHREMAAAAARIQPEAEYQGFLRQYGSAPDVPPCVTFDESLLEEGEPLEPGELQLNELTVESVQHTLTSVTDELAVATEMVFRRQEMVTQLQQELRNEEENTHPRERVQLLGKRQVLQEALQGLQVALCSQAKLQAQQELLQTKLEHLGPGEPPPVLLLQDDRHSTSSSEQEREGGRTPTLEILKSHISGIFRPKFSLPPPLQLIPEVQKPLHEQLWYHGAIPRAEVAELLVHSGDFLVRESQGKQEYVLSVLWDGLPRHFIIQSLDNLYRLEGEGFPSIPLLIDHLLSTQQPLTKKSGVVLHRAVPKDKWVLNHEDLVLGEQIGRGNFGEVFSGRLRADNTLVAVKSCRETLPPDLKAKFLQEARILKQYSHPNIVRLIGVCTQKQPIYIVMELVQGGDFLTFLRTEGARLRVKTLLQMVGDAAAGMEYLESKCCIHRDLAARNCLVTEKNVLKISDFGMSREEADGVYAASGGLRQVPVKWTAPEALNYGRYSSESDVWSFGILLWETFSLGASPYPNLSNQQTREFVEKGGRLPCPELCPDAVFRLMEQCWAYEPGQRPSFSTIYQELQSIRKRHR

Fyn = Fyn (UniProt P06241); assay: as above
Chain of Fyn (P06241 whole entry, looked up): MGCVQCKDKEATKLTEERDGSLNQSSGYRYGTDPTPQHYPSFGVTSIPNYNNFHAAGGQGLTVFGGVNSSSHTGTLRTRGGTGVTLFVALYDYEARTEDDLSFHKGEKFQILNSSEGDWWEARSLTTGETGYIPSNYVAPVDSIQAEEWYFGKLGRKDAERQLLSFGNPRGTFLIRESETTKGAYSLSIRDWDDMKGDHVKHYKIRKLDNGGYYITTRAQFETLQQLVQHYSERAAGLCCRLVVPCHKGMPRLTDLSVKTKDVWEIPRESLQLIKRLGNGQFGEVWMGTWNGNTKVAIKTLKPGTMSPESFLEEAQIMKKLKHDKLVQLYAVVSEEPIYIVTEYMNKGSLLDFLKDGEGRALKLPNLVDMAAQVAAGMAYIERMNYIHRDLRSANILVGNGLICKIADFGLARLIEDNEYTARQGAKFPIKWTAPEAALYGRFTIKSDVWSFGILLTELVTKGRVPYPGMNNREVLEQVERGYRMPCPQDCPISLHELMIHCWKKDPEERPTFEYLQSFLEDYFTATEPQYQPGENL

Hck = Hck (UniProt P08631); assay: as above
Jak2 = Jak2 (UniProt O60674); assay: as above
Chain of Jak2 (O60674 whole entry, looked up): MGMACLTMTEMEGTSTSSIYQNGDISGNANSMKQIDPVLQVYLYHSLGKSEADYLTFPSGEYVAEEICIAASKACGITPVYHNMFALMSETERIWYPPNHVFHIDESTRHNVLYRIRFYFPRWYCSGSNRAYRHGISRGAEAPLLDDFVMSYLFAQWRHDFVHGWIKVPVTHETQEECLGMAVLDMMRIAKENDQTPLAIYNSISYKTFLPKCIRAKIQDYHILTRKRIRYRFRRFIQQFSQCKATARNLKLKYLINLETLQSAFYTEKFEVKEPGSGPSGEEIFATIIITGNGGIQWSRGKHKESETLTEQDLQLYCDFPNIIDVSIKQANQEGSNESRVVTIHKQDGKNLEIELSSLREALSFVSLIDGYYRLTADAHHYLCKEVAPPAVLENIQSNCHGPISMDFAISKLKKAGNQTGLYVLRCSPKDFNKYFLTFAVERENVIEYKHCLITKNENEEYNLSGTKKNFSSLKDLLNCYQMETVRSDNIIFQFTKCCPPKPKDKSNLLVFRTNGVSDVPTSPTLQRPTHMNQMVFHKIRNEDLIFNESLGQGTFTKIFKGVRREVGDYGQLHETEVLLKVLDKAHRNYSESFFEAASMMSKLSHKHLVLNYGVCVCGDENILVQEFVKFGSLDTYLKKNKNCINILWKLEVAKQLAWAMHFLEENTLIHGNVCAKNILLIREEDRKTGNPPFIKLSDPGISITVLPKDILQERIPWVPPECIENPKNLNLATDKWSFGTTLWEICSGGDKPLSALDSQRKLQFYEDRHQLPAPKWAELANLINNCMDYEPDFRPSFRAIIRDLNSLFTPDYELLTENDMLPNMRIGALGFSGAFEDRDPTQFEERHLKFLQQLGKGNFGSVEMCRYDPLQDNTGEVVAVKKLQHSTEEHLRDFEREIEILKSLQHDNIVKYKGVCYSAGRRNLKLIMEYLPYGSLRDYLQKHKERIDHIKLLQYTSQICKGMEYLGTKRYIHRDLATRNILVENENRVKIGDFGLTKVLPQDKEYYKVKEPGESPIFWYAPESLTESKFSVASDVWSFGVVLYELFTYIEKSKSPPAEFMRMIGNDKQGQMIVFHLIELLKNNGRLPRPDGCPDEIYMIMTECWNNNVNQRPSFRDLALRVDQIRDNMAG

MERTK = MERTK (UniProt Q12866); assay: as above
c-Abl (mouse) = assay: as above
c-Src = assay: as above
Grb2 SH2 = Grb2 SH2 (UniProt P62993); assay: SH2 binding enrichment of the phosphorylated peptide, bacterial display (enrichment ratio); higher = better substrate or ligand; peptides without Tyr show the background
SHP2-C SH2 = assay: as above
c-Src SH2 = assay: as above
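Wherever SH2 binding enrichment of the phosphorylated peptide, bacterial display is given: peptide library displayed on the E. coli surface as eCPX fusions, selected cells deep-sequenced, score is each peptide's frequency after selection divided by its frequency in the input.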
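Wherever phosphorylation enrichment, bacterial display is given: 11-residue human phosphosite peptides and single-mutation variants displayed on the E. coli surface, counted by deep sequencing, each peptide's frequency after selection divided by its frequency in the unselected input library; frequency after pTyr selection over input frequency; kinase dosed for 20-30% of maximal phosphorylation in three min.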

Chain of FGFR1 (P11362 whole entry, looked up): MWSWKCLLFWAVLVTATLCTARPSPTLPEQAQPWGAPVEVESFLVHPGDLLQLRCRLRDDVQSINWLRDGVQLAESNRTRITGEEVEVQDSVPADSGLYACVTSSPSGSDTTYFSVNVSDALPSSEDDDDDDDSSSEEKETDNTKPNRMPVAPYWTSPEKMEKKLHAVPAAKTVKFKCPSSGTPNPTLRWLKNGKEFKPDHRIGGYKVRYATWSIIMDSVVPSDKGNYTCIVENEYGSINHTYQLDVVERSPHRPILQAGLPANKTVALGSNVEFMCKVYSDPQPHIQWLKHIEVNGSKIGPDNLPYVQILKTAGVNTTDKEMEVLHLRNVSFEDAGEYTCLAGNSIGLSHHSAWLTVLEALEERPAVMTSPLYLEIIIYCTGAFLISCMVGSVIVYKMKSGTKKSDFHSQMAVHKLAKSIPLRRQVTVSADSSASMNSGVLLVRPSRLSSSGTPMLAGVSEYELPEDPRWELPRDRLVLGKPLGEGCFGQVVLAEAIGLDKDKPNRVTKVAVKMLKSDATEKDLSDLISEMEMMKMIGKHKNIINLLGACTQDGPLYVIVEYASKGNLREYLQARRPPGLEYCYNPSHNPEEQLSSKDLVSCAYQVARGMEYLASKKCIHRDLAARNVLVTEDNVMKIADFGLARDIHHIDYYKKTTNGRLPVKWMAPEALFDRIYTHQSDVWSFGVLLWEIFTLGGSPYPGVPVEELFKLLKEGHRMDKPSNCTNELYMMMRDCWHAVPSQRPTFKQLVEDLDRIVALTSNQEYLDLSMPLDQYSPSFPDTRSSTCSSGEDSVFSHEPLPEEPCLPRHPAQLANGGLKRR
Chain of EPHB1 (P54762 whole entry, looked up): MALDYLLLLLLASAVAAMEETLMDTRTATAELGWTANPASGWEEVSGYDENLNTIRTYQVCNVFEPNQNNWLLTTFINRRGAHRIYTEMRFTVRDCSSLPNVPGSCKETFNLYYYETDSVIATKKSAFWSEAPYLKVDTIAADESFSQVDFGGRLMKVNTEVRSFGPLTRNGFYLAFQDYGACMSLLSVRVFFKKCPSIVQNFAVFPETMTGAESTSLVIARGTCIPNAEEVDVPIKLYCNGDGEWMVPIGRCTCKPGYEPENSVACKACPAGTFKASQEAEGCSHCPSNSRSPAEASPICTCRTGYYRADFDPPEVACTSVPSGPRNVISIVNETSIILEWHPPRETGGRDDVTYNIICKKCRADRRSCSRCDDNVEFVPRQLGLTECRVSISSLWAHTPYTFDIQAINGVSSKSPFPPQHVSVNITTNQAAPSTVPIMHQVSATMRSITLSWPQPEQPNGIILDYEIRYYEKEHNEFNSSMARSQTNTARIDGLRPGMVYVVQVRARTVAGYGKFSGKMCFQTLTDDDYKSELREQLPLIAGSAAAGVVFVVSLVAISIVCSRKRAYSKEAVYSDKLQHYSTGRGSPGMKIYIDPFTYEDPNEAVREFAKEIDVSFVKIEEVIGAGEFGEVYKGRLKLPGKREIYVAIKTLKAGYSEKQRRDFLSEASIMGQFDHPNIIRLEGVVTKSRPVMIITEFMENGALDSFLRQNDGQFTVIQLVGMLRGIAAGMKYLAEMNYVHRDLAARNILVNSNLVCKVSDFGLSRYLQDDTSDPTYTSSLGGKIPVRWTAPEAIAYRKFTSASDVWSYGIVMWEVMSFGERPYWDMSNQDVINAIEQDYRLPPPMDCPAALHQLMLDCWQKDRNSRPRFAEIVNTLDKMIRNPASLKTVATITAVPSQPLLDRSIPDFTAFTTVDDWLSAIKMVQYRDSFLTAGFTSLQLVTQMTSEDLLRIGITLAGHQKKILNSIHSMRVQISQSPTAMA

Sequence | SH2 binding enrichment (Grb2 SH2) | SH2 binding enrichment (SHP2-C SH2) | SH2 binding enrichment (c-Src SH2) | phosphorylation enrichment (AncSZ) | phosphorylation enrichment (EPHB1) | phosphorylation enrichment (EPHB2) | phosphorylation enrichment (FGFR1) | phosphorylation enrichment (FGFR3) | phosphorylation enrichment (Fer (mouse)) | phosphorylation enrichment (Fes) | phosphorylation enrichment (Fyn) | phosphorylation enrichment (Hck) | phosphorylation enrichment (Jak2) | phosphorylation enrichment (MERTK) | phosphorylation enrichment (c-Abl (mouse)) | phosphorylation enrichment (c-Src)
DPHECYAKVFN [ALB_Y394_D399N] | 1.11 | 1.81 | 1.4 | 0.844 | 0.549 | 0.586 | 0.589 | 0.643 | 0.529 | 0.952 | 0.552 | 0.81 | 0.847 | 0.504 | 0.91 | 0.624
FGSLLYKFAFK [FANCD2_Y458_YF] | 0.983 | 0.732 | 0.449 | 0.91 | 0.464 | 0.445 | 0.527 | 0.678 | 0.336 | 1.09 | 0.306 | 0.37 | 0.964 | 0.4 | 0.726 | 0.453
KGELCYMHSRV [ABCD1_Y281_R280C] | 1.31 | 0.883 | 0.632 | 0.813 | 0.597 | 0.581 | 0.479 | 0.682 | 0.449 | 0.757 | 0.505 | 0.485 | 0.568 | 0.563 | 0.43 | 0.402
NTVLGYFIGRI [GARS1_Y408] | 1.14 | 1.08 | 0.637 | 0.973 | 0.48 | 0.44 | 0.443 | 0.617 | 0.479 | 1.09 | 0.427 | 0.495 | 0.735 | 0.423 | 0.634 | 0.348
ARAFIYAIIPA [ACKtide_2014] | 1.03 | 0.777 | 0.764 | 1.4 | 5.28 | 2.22 | 1.07 | 1.1 | 0.81 | 1.46 | 2.65 | 4.01 | 1.86 | 6.87 | 2.27 | 3.54
DAGTDYVGISR [FREM2_Y2061] | 0.938 | 0.758 | 0.481 | 0.606 | 0.445 | 0.492 | 0.541 | 0.621 | 0.459 | 0.64 | 0.482 | 0.545 | 0.496 | 0.414 | 0.54 | 0.459
RENGPYFASFP [GDAP2_Y487_T489A_YF] | 0.812 | 0.707 | 0.534 | 1.17 | 0.443 | 0.534 | 0.889 | 0.891 | 0.627 | 0.924 | 0.568 | 0.432 | 1.27 | 0.565 | 0.893 | 1.27
GYDHSYYFIAT [ESD_Y262] | 0.702 | 0.727 | 0.871 | 2.05 | 1.95 | 1.24 | 11.1 | 9.89 | 1.1 | 1.22 | 1.41 | 2.02 | 6.79 | 4.8 | 0.759 | 1.57
HHIDYYKETTN [FGFR1_Y654_K656E] | 0.985 | 0.996 | 1.47 | 1.13 | 1.03 | 0.814 | 1.09 | 0.935 | 0.893 | 1.39 | 0.646 | 0.799 | 0.979 | 0.866 | 0.878 | 0.997
FQGGTYSKACT [FGG_Y380_S384C_YF] | 0.918 | 0.746 | 0.783 | 0.528 | 0.404 | 0.366 | 0.448 | 0.439 | 0.46 | 0.589 | 0.35 | 0.473 | 0.503 | 0.446 | 0.633 | 0.447
MTKEQYIKMNR [ARFGEF2_Y797] | 0.823 | 0.672 | 0.454 | 0.595 | 0.365 | 0.357 | 0.458 | 0.445 | 0.346 | 0.558 | 0.397 | 0.407 | 0.563 | 0.348 | 0.335 | 0.369
GRVLGYGAFRK [FLT4_Y853_G857R] | 0.671 | 0.733 | 0.549 | 0.634 | 0.44 | 0.432 | 0.477 | 0.495 | 0.406 | 0.586 | 0.517 | 0.486 | 0.539 | 0.482 | 0.644 | 0.52
FAELVYTGFWH [ASS1_Y322] | 0.87 | 0.698 | 0.524 | 1.54 | 2.21 | 2.59 | 2.22 | 1.85 | 6.97 | 1.41 | 8.14 | 6 | 1.67 | 6.23 | 8.78 | 7.01
GVLKEYGEKVL [CPS1_Y529_V531E] | 0.921 | 0.767 | 0.427 | 0.742 | 0.42 | 0.474 | 0.419 | 0.466 | 0.405 | 0.719 | 0.425 | 0.422 | 0.573 | 0.415 | 0.648 | 0.396
SHGKRYRVPSD [HHIPL2_Y395] | 0.887 | 0.592 | 0.557 | 0.379 | 0.254 | 0.274 | 0.301 | 0.366 | 0.285 | 0.413 | 0.395 | 0.274 | 0.314 | 0.374 | 0.337 | 0.352
TKDTFYKQPVF [GBA_Y451_M455V] | 0.905 | 0.66 | 0.417 | 0.634 | 0.409 | 0.523 | 0.406 | 0.473 | 0.308 | 0.766 | 0.386 | 0.312 | 0.695 | 0.417 | 0.764 | 0.421
FQNSLYAPDFS [FAM92A_Y226_R222Q_YF] | 0.891 | 0.614 | 0.591 | 0.9 | 4.07 | 4.54 | 1.48 | 1.47 | 3.35 | 0.945 | 2.08 | 2.12 | 1.08 | 7.8 | 0.781 | 2.18
TVSSDYLHPQF [CCPG1_Y569_F566S_YF] | 0.848 | 0.704 | 0.527 | 1.8 | 0.823 | 0.538 | 0.514 | 0.753 | 0.495 | 0.927 | 0.404 | 0.444 | 0.779 | 0.411 | 0.877 | 0.457
LKEIRYPPFTD [ALDH3B2_Y362_H361R_YF] | 0.798 | 0.68 | 0.605 | 2.71 | 0.883 | 0.731 | 1.09 | 1.07 | 1.09 | 2.01 | 0.926 | 0.63 | 2.05 | 0.725 | 1.06 | 0.919
SSSNPYSTVTM [ACTN2_Y599] | 0.766 | 7.62 | 3.42 | 0.62 | 0.461 | 0.389 | 0.543 | 0.486 | 10.9 | 0.751 | 0.976 | 0.995 | 0.599 | 0.521 | 0.768 | 1.9

The next lines start with results.

SH2 binding enrichment (Grb2 SH2) | SH2 binding enrichment (SHP2-C SH2) | SH2 binding enrichment (c-Src SH2) | Sequence | phosphorylation enrichment (AncSZ) | phosphorylation enrichment (EPHB1) | phosphorylation enrichment (EPHB2) | phosphorylation enrichment (FGFR1) | phosphorylation enrichment (FGFR3) | phosphorylation enrichment (Fer (mouse)) | phosphorylation enrichment (Fes) | phosphorylation enrichment (Fyn) | phosphorylation enrichment (Hck) | phosphorylation enrichment (Jak2) | phosphorylation enrichment (MERTK) | phosphorylation enrichment (c-Abl (mouse)) | phosphorylation enrichment (c-Src)
1.47 | 1.64 | 1.47 | KGRAGYTTVAV [RET_Y752] | 0.46 | 0.286 | 0.265 | 0.309 | 0.412 | 0.325 | 0.519 | 0.319 | 0.337 | 0.437 | 0.415 | 0.454 | 0.347
0.856 | 0.711 | 0.377 | QEGPEYWDRNT [HLA-B_Y83] | 1.36 | 0.9 | 0.741 | 1.03 | 0.913 | 0.557 | 1.29 | 0.763 | 0.685 | 0.806 | 0.49 | 0.757 | 0.485
0.913 | 0.769 | 2.11 | TEQDPYNNIVH [MMUT_Y364_R369H] | 1.05 | 0.475 | 0.679 | 0.501 | 0.599 | 0.544 | 0.965 | 0.572 | 0.586 | 0.788 | 0.512 | 0.851 | 0.515
0.742 | 0.562 | 0.547 | YRRITYYNWRH [PDE6B_Y556_H557Y] | 0.64 | 0.417 | 0.457 | 0.497 | 0.598 | 0.442 | 0.549 | 0.483 | 0.46 | 0.47 | 0.512 | 0.539 | 0.47
1.47 | 1.27 | 1.1 | ILIFHYAKGQP [MPZ_Y82_S78L] | 1.32 | 0.753 | 0.705 | 0.612 | 0.85 | 0.819 | 1.37 | 0.504 | 0.674 | 1.01 | 0.475 | 0.904 | 0.508
1.98 | 1.39 | 1.21 | FKWAVYCIIGR [NUP93_Y391_R388W_YF] | 1.28 | 1.19 | 0.673 | 0.614 | 0.714 | 1.02 | 1.28 | 0.554 | 0.699 | 1.03 | 0.534 | 0.902 | 0.652
0.889 | 0.999 | 0.494 | KVNKIYHPDFI [LIG3_Y767_Y768H] | 0.542 | 0.39 | 0.417 | 0.398 | 0.539 | 0.395 | 0.627 | 0.417 | 0.488 | 0.574 | 0.443 | 0.473 | 0.43
0.795 | 0.678 | 0.519 | CEHRGSLYLAI [TEK_Y897_Y897S] | 1.13 | 0.714 | 0.585 | 0.609 | 0.847 | 0.573 | 1.24 | 0.552 | 0.606 | 1.16 | 1.24 | 0.933 | 0.891
0.799 | 0.517 | 3.05 | FTNRNYDLDYD [MYC_Y12] | 1.13 | 0.666 | 0.637 | 0.69 | 0.591 | 0.58 | 1.12 | 0.607 | 0.594 | 1.3 | 0.58 | 0.713 | 0.586
0.944 | 0.823 | 0.482 | PNLILYGDFRQ [MYH7_Y715_R712L] | 1.09 | 0.688 | 0.602 | 0.552 | 0.762 | 0.72 | 1.28 | 5.16 | 2.87 | 0.75 | 0.465 | 0.766 | 2.98
0.779 | 0.656 | 0.446 | LNARHYGGLTG [PGAM2_Y92_E89A] | 0.585 | 0.376 | 0.3 | 0.567 | 0.513 | 0.634 | 0.573 | 0.301 | 0.542 | 0.606 | 0.44 | 0.668 | 0.631
0.708 | 0.91 | 0.687 | TNFSLYLRSLE [MTM1_Y71_R69S_YF] | 1.2 | 0.754 | 0.491 | 0.41 | 0.744 | 0.438 | 1.38 | 0.368 | 0.432 | 1.36 | 0.42 | 0.908 | 0.385
0.97 | 0.764 | 0.415 | RRGMPYGGHGD [TGM1_Y312_R315H] | 0.572 | 0.414 | 0.624 | 0.758 | 0.472 | 0.582 | 0.653 | 0.706 | 0.52 | 0.377 | 0.465 | 0.357 | 0.434
